# Experimental data published in the Immune Epitope Database (IEDB).
# Legend:
# HLA-B*07:02 = test: IEDB peptide-MHC binding, purified MHC/direct/fluorescence; filed as Kd, often an IC50 or EC50 that approximates it; ≥ and ≤ were set here for values at or beyond the usual limits of such assays; conditions: source organism: Mycobacterium tuberculosis str. Haarlem
# HLA-B*35:01 = test: IEDB peptide-MHC binding, purified MHC/competitive/fluorescence; filed as Kd, often an IC50 or EC50 that approximates it; ≥ and ≤ were set here for values at or beyond the usual limits of such assays; conditions: source organism: Mycobacterium tuberculosis variant bovis BCG str. Pasteur 1173P2
# HLA-B*08:01 = test: as above; conditions: source organism: Escherichia coli O139:H28 str. E24377A
# HLA-A*02:12 = test: IEDB peptide-MHC binding, purified MHC/direct/fluorescence; filed as Kd, often an IC50 or EC50 that approximates it; ≥ and ≤ were set here for values at or beyond the usual limits of such assays
# HLA-A*02:19 = test: as above
# HLA-A*29:02 = test: as above
# HLA-A*24:03 = test: as above
# HLA-A*02:16 = test: as above
# HLA-A*02:11 = test: as above
# HLA-A*68:02 = test: as above
# HLA-A*02:03 = test: as above
# HLA-A*23:01 = test: as above
# HLA-A*03:01 = test: as above
# HLA-B*57:01 = test: IEDB peptide-MHC binding, purified MHC/competitive/fluorescence; filed as Kd, often an IC50 or EC50 that approximates it; ≥ and ≤ were set here for values at or beyond the usual limits of such assays
# HLA-A*02:01 = test: as above
# HLA-A*69:01 = test: as above
# HLA-A*26:01 = test: as above
# HLA-B*51:01 = test: as above
# HLA-A*31:01 = test: as above; conditions: source organism: Zaire ebolavirus
# HLA-B*15:01 = test: as above; conditions: source organism: Zaire ebolavirus
# HLA-B*39:01 = test: as above
# HLA-B*18:01 = test: as above
# HLA-B*15:17 = test: as above; conditions: source organism: Zaire ebolavirus
# HLA-B*27:03 = test: as above
# HLA-B*46:01 = test: as above
# HLA-A*01:01 = test: IEDB peptide-MHC binding, purified MHC/direct/fluorescence; filed as Kd, often an IC50 or EC50 that approximates it; ≥ and ≤ were set here for values at or beyond the usual limits of such assays
# [1] = source organism: Ravn virus - Ravn, Kenya, 1987
# [2] = source organism: Zaire ebolavirus
# [3] = source organism: Orthohantavirus sinnombreense
sequence,measurement,setting,value
GPGEVSAAM,Kd,HLA-B*07:02,0.146 µM
same,Kd,HLA-B*35:01,0.0039 µM
HPKRTERAG,Kd,HLA-B*08:01,≥ 20 µM
HSGFIYFGK,Kd,HLA-A*02:12; [1],≥ 20 µM
same,Kd,HLA-A*02:19; [1],≥ 20 µM
same,Kd,HLA-A*29:02; [1],≥ 20 µM
same,Kd,HLA-A*24:03; [1],≥ 20 µM
same,Kd,HLA-A*02:16; [1],≥ 20 µM
same,Kd,HLA-A*02:11; [1],≥ 20 µM
same,Kd,HLA-A*68:02; [1],≥ 20 µM
same,Kd,HLA-A*02:03; [1],≥ 20 µM
same,Kd,HLA-A*23:01; [1],≥ 20 µM
same,Kd,HLA-A*03:01; source organism: Sudan ebolavirus - Uganda (2000),3.47 µM
same,Kd,HLA-B*57:01; [2],≥ 20 µM
same,Kd,HLA-A*02:01; [2],≥ 20 µM
same,Kd,HLA-A*69:01; [2],≥ 20 µM
same,Kd,HLA-A*26:01; [2],≥ 20 µM
same,Kd,HLA-B*51:01; [2],≥ 20 µM
same,Kd,HLA-A*31:01,0.797 µM
same,Kd,HLA-B*15:01,≥ 20 µM
same,Kd,HLA-B*39:01; [2],≥ 20 µM
same,Kd,HLA-B*18:01; [2],≥ 20 µM
same,Kd,HLA-B*15:17,≥ 20 µM
same,Kd,HLA-B*27:03; [2],≥ 20 µM
same,Kd,HLA-B*46:01; [2],≥ 20 µM
HTVGLGQGY,Kd,HLA-A*02:12; source organism: Choclo virus,≥ 20 µM
same,Kd,HLA-A*02:19; source organism: Choclo virus,≥ 20 µM
same,Kd,HLA-A*01:01; source organism: Orthohantavirus andesense,≥ 5 µM
same,Kd,HLA-A*24:03; source organism: Choclo virus,≥ 20 µM
same,Kd,HLA-A*02:16; source organism: Choclo virus,≥ 20 µM
same,Kd,HLA-A*02:11; source organism: Choclo virus,≥ 20 µM
same,Kd,HLA-A*02:03; source organism: Choclo virus,≥ 20 µM
same,Kd,HLA-A*23:01; source organism: Choclo virus,≥ 20 µM
same,Kd,HLA-A*03:01; source organism: Choclo virus,≥ 20 µM
same,Kd,HLA-B*57:01; [3],≥ 20 µM
same,Kd,HLA-A*02:01; [3],≥ 20 µM
same,Kd,HLA-A*69:01; [3],≥ 20 µM
same,Kd,HLA-A*26:01; [3],0.0021 µM
same,Kd,HLA-B*51:01; [3],≥ 20 µM
same,Kd,HLA-B*39:01; [3],≥ 20 µM
same,Kd,HLA-B*18:01; [3],≥ 20 µM
same,Kd,HLA-B*27:03; [3],≥ 20 µM
same,Kd,HLA-B*46:01; [3],≥ 20 µM
QTEPKTSVV,Kd,HLA-A*02:12; [2],≥ 20 µM
same,Kd,HLA-A*02:19; [2],≥ 20 µM
same,Kd,"HLA-A*01:01; source organism: Ebola virus - Eckron (Zaire, 1976)",16.4 µM
same,Kd,HLA-A*29:02; [2],≥ 20 µM
same,Kd,HLA-A*24:03; [2],≥ 20 µM
same,Kd,HLA-A*02:11; [2],≥ 20 µM
same,Kd,HLA-A*68:02; [2],≥ 20 µM
same,Kd,HLA-A*02:03; [2],≥ 20 µM
same,Kd,HLA-A*23:01; [2],≥ 20 µM
same,Kd,HLA-A*03:01; [2],≥ 20 µM
same,Kd,HLA-B*57:01; [2],≥ 20 µM
same,Kd,HLA-A*02:01; [2],≥ 20 µM
same,Kd,HLA-A*26:01; [2],≥ 20 µM
same,Kd,HLA-B*51:01; [2],≥ 20 µM
same,Kd,HLA-B*15:01,≥ 20 µM
same,Kd,HLA-B*39:01; [2],≥ 20 µM
same,Kd,HLA-B*18:01; [2],≥ 20 µM
same,Kd,HLA-B*15:17,≥ 20 µM
same,Kd,HLA-B*27:03; [2],≥ 20 µM
same,Kd,HLA-B*46:01; [2],≥ 20 µM
